Measurements: patent US20150284453A1, “METHOD OF PROTECTING CARDIAC FUNCTION” (Declmmune Therapeutics, Inc., priority 2012, published 2015)

B1: murine 21G6 mAb: murine anti-N2 monoclonal antibody from hybridoma ATCC Accession Number PTA-9393 (antibody, V domains shown)
VH: QVQLQQPGAELVKPGASVKLSCKASGYTFTSYYMYWVKQRPGQGLEWIGGINPSNGGTNFNEKFKSKATLTVDKSSSTAYMQLSSLTSEDSAVYYCTRWGYDREWFAYWGQGTLVTVSA
VL: DIVMTQAAPSVPVTPGESVSISCRSSKSLLHSNGNTYLYWFLQRPGQSPQVLIYRMSNLASGVPDRFSGSGSGTAFTLRISRVEAEDVGVYYCMQHLEYPFTFGSGTKLEIKR

Key:
Format in all cases: in vivo
[1] = system: swine model of myocardial infarction; experiment: Serum cardiac troponin-T (cTnT) levels, swine model of myocardial infarction; conditions: N2 4.6 mg/kg or m21G6 2 mg/kg i.v. prior to reperfusion; for reduction of peak serum cTnT levels as compared to saline controls: 8-120 h post-reperfusion; for reduction of cTnT AUC values as compared to saline controls: five day reperfusion period
Experimental: FIGS. 3A and 3B are plots showing the effect of N2 peptide and murine 21G6 mAb (m21G6) on serum cardiac troponin-T (cTnT) levels. Swine were subjected to 1 h LAD occlusion and 5 d reperfusion. Prior to reperfusion either saline, N2 (4.6 mg/kg), or m21G6 (2 mg/kg) was injected i.v. into the swine. Serum samples were taken at several time points as described in text and analyzed for cTnT. (A) Peak cTnT levels. (B) cTnT levels over 5d reperfusion. # represents p<0.05; ## represents p<0.01. Each symbol represents data from one animal. Cardiac troponin-T (cTnT), a well-established marker for cardiac tissue injury, from 8-120 h post-reperfusion, was also analyzed. […] Saline-treated animals developed approximately a 20% infarct of the left ventricle as assessed by TTC staining at 5d post-reperfusion as predicted • Serial EKGs to document ST elevation • Angiogram q20 min to confirm complete occlusion • Lidocaine and defibrillation as needed • Administration of control vs. N2 peptide 5 minutes prior to reperfusion or mAb 21G6 30 minutes before reperfusion • Measure trend in cardiac enzymes (CK, cTnT) • Cardiectomy on Day 5 or Day 21 via cardioplegic arrest • LAD ligation at site of occlusion followed by injection of Evans blue dye via aortic cannula gives estimate of Area At Risk (AAR) • Incubation of transverse sections in TTC for 15 min at 37° C. • Calculate % infarction by computerized planimetry • 21G6 Alexa 568(1 mg/ml) infusion was initiated 2 min prior to reperfusion at ≈1 m1/min for ≈30 min via coronary catheter (results shown in FIG. 1 showing localization of the antibody to the injured left ventricle and not to the uninjured right ventricle) • Heart was perfused with cardioplegic solution 1 h post-ischemia, harvested, sectioned, and punch biopsies taken in the area at risk and in right ventricle • Sections were stained with anti-swine CD31 FITC (Serotec) 1/20 dilution • Using a fluoroscopically guided balloon catheter approach, the left anterior descending coronary artery (LAD) was occluded for 60 min at a defined point distal to the 2nd and 3rd diagonal branches. Saline-treated animals developed approximately a 20% infarct of the left ventricle as assessed by TTC staining at 5d post-reperfusion as predicted.

[2] = system: porcine model of myocardial infarction; experiment: Cardiac function (LVEF, fractional shortening) by echocardiography, porcine model of myocardial infarction; conditions: for increase in EF compared to saline controls at the same time point: 21 days post-reperfusion, 3D TTE, n of 3 per group; for ejection fraction (EF) 21 d post-reperfusion: Quinones method; for ejection fraction (EF) 21 d post-reperfusion / LVEF at baseline: n=3/group; for recovery of cardiac function by fractional shortening (FS) compared to baseline: 21d reperfusion period; for LVEF at baseline: baseline (prior to occlusion procedure)
Description: FIG. 4A to 4C are graphs showing measurements of cardiac function by echocardiography. (A) Non-corrected % LVEF as measured by 2D TTE at 21d post-reperfusion compared to baseline using Quinones method (described below in the Examples section). (B) % LVEF as measured by 3D TTE at 21d post-reperfusion. (C) Fractional shortening as measured by 2D TTE at 21d post-reperfusion compared to baseline. # represents a p<0.05. n=3/group.
To determine the effect of N2 peptide and the 21G6 antibody treatment on cardiac function, echocardiography was employed. Echocardiography is widely accepted for evaluation of cardiac function and is utilized in emergency and operating rooms as well as intensive care departments in most hospitals. Ventricular function as assessed by echocardiography is accompanied by low intra-observer and inter-observer variability and assessment of left ventricular ejection fraction remains the standard of care in clinical practice. In addition, fractional shortening (FS), another measure of left ventricular function, was also calculated based on two-dimensional (2D) measurements at all time points measured at mid-ventricle and is defined as the difference between end-diastolic and end-systolic dimensions divided by end-diastolic dimension.
For animals in which functional data was generated (N2: n of 3, murine 21G6 mAb: n of 3, Saline: n of 3), cardiac imaging was performed via transthoracic echocardiography (TTE) at baseline (prior to occlusion procedure), and then up to 21d following reperfusion. For baseline TTE images were obtained using a high-frequency 2D probe and a Philips iE33 xMATRIX scanner (Andover, Mass.). Prior to sacrifice at 21 days, both 2D and 3D epicardial echocardiography images were obtained after median sternotomy was performed. 3D volumetric data sets were ECG-gated from 4-7 consecutive heartbeats. Additionally, 3D left ventricular volumes and ejection fractions were computed from the epicardial 3D datasets.
Prior to the occlusion procedure, a baseline TTE image was recorded. Afterwards, TTE was performed. Animals were treated in an identical manner as in the 5 day study for the catheterization procedure except that animals were maintained for an additional 16 days. The echocardiographer was blinded to the treatment schedule.
At baseline, saline, N2- and murine 21G6 mAb -treated animals had LVEFs of 53%, 52.6%, and 51%, respectively.
• Intravenous amiodarone infusion (1 mg/min) • Systemic heparinization (˜150 units/kg) • Percutaneously access of LAD via right (R) femoral artery • Occlusion mid-LAD with balloon catheter for 60 min as follows: Using a fluoroscopically guided balloon catheter approach, the left anterior descending coronary artery (LAD) was occluded for 60 min at a defined point distal to the 2nd and 3rd diagonal branches. […]

[3] = system: swine model of myocardial infarction; experiment: Myocardial infarct size by Evan's blue/TTC staining, swine model of myocardial infarction (1 h LAD occlusion, 5 d reperfusion); conditions: 5d post-reperfusion, TTC staining; i.v. N2 4.6 mg/kg 5 min or murine 21G6 mAb 2 mg/kg 30 min prior to reperfusion
Experimental: FIG. 2A to 2C are plots showing that N2 peptide and murine 21G6 mAb reduce infarct size in a swine model of myocardial infarction. Swine were subjected to 1 h LAD occlusion and 5 d reperfusion. Prior to reperfusion either saline, N2 (4.6 mg/kg), or murine 21G6 mAb (2 mg/kg) was injected i.v. into the swine. Following 5 d reperfusion, myocardial sections were stained with Evan's blue and TTC. (A) Myocardial infarct size expressed as a percentage of the left ventricle (LV). (B) Percentage of area at risk (AAR) to the LV. (C) Myocardial infarct size expressed as a percentage of the AAR. # represents p<0.05; ## represents p<0.01; ### represents p<0.001. Each symbol represents data from one animal. (Note: Due to poor perfusion with Evan's blue dye in one animal, n=5 in panels B and C). […] Saline-treated animals developed approximately a 20% infarct of the left ventricle as assessed by TTC staining at 5d post-reperfusion as predicted.

| Molecule | reduction of peak serum cTnT levels as compared to saline controls [1] | reduction of cTnT AUC values as compared to saline controls [1] | increase in EF compared to saline controls at the same time point [2] [%] | ejection fraction (EF) 21 d post-reperfusion ([2]; 2D TTE) [%] | recovery of cardiac function by fractional shortening (FS) compared to baseline ([2]; 2D TTE) [%] | LVEF at baseline ([2]; 2D TTE) [%] | reduction of infarct size as a percentage of the area at risk (AAR) [3] [%] | recovery of cardiac function (LVEF at 21 d relative to baseline) ([2]; 21 d post-reperfusion vs baseline, 2D TTE, saline-treated 74.7%) [%] |
| --- | --- | --- | --- | --- | --- | --- | --- | --- |
| LMKNMDPLNDNV [N2 peptide] | no effect | no effect | 29 | 52.0 | 98.8 | 52.6 | 31 |  |
| B1 | 60% | 47% | 21 | 50.4 | 99.4 | 51 | 49 | 98.8 |
